Experimental data: publication PMC5268738, “A sequential multi-target Mps1 phosphorylation cascade promotes spindle checkpoint signaling” (eLife, 2017)

Legend:
Mad1 CTD [1] = target: Mad1 CTD (UniProt Q9Y6D9); experiment: peptide-bead pull-down, Coomassie
Mad1 CTD [2] = target: Mad1 CTD (UniProt Q9Y6D9); experiment: ITC; details: reference: pT461 peptide; sites S459
Cdc20 Cdc20N, 1-170 = Cdc20 Cdc20N, 1-170 (UniProt Q12834); experiment: Ni2+ bead pull-down, anti-Mad1 blot; details: reference: Mad1E–Mad2 wild type; sites T716
scMad1 CTD [3] = target: scMad1 CTD (UniProt P40957); experiment: peptide-bead pull-down, Coomassie
scMad1 CTD [4] = target: scMad1 CTD (UniProt P40957); experiment: ITC; details: reference: pT455 peptide; sites T453

## Bub1 455-477 (from UniProt O43683) pS459-pT461 peptide
Mad1 CTD [1]; reference: pT461 peptide, sites S459
  binding against the reference: stronger
Mad1 CTD [2]
  binding against the reference: stronger

## Bub1 455-477 (from UniProt O43683) pS459-pT461-pT464 peptide
Mad1 CTD [1]; reference: pS459-pT461 peptide, sites T464
  binding against the reference: weaker

## Mad1 Mad1E (MIM + CTD) (from UniProt Q9Y6D9) Mad1E T716A
Cdc20 Cdc20N, 1-170
  binding against the reference: weaker

## scBub1 449-473 (from UniProt P41695) pT453-pT455 peptide
scMad1 CTD [3]; reference: pT453 peptide, sites T455
  binding against the reference: stronger
scMad1 CTD [3]; reference: pT455 peptide, sites T453
  binding against the reference: same
scMad1 CTD [4]
  binding against the reference: same
